Assay results reported in US20100221329A1 (SYNERGY PHARMACEUTICALS, published 2010).
Bridges are numbered along the chain shown (N, C = ends). Where no end group is shown, it is not given here.

Target: guanylate cyclase C (human, UniProt P25092 24-1073)
Test: cell-based or functional assay

guanylate cyclase C, sequence (P25092 24-1073): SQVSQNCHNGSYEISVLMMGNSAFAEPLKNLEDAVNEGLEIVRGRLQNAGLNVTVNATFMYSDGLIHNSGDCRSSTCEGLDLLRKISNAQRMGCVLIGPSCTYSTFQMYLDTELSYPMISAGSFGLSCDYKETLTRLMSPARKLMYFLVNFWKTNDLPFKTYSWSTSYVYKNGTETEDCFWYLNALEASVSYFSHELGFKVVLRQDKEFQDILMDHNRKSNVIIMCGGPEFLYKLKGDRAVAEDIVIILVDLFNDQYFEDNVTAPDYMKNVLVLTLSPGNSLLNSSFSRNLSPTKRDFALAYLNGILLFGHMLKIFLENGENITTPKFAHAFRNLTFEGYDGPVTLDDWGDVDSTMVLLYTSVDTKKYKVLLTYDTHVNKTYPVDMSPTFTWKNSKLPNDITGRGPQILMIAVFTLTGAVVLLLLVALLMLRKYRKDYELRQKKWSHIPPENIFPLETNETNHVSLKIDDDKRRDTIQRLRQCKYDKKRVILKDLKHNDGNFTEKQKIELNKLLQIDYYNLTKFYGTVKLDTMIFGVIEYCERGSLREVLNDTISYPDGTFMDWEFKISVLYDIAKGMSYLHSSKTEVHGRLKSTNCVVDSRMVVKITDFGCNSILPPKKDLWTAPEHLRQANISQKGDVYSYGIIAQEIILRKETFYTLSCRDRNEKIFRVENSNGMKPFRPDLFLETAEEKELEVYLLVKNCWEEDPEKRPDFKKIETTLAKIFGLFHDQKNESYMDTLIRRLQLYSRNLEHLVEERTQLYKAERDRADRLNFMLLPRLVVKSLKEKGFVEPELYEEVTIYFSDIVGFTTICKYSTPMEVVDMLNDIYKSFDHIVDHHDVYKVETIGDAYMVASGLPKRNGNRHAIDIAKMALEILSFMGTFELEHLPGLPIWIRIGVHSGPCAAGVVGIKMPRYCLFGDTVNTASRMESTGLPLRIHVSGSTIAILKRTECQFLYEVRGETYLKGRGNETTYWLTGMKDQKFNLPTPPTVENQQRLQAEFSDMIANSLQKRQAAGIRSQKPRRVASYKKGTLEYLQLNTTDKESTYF

- stimulation of cGMP synthesis in T84 cells (peptide at 1.0 µM, 30 min), biological activity relative to SP-304: ~80 % of the biological activity of SP-304
Binder: NDECELCVNVACTGC (disulfide 4-12, 7-15) [SP-338]
